Positions count from the first letter of the chain named.
What was measured:
Assay in all cases: co-IP; Flag-tagged CTR-CNGA1 (wild type or mutant) and Myc-tagged RA domains co-expressed in HEK-293T cells; reciprocal immunoprecipitation with anti-Flag or anti-Myc antibodies (IgG as control), immunoblot, densitometry
Settings in all cases: partners not purified
[1] = molecular target: T1, CTR-CNGA1 (D577N) (UniProt Q00194 483-690, D577N)
T1 construct: CNGA1 C-terminal region, residues 483-690, with D577N; Mutant of m1 made by site-directed mutagenesis; source: HEK-293T, transfected (pCDNA3), in lysate; not shown: FLAG, N-terminal, kept
T1 sequence (looked up): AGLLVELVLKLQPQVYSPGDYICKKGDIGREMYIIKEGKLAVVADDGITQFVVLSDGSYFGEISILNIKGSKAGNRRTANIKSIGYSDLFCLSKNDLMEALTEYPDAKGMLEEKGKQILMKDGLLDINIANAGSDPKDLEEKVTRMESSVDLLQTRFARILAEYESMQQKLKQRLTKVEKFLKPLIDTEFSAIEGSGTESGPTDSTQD

[2] = molecular target: T2, CTR-CNGA1 (E581Q) (UniProt Q00194 483-690, E581Q)
T2 construct: CNGA1 C-terminal region, residues 483-690, with E581Q; Mutant of m1 made by site-directed mutagenesis; source: HEK-293T, transfected (pCDNA3), in lysate; not shown: FLAG, N-terminal, kept
T2 sequence (looked up): T1 sequence (looked up) with N95D, E99Q

[3] = molecular target: T3, CTR-CNGA1 (D577,578 N) (UniProt Q00194 483-690, D577,578 N | D577,578 N)
T3 construct: CNGA1 C-terminal region, residues 483-690, with D577N and D578N; Mutant of m1 made by site-directed mutagenesis; source: HEK-293T, transfected (pCDNA3), in lysate; not shown: FLAG, N-terminal, kept
T3 sequence (looked up): T1 sequence (looked up) with D96N

B1: Myc-tagged RA domain of PI3Kγ (residues 141-311) (domain or fragment, UniProt P48736 141-311, looked up)
chain: HPPSEESQAFQRQLTALIGYDVTDVSNVHDDELEFTRRGLVTPRMAEVASRDPKLYAMHPWVTSKPLPEYLWKKIANNCIFIVIHRSTTSQTIKVSPDDTPGAILQSFFTKMAKKKSLMDIPESQSEQDFVLRVCGRDEYLVGETPIKNFQWVRHCLKNGEEIHVVLDTPP
notes: also called RA-PI3Kγ; PI3Kγ-RA; source: HEK-293T, transfected (pCDNA3), in lysate
percent disruption of the interaction against wild type [1]: 30 percent | percent disruption of the interaction against wild type [2]: 50 percent | percent disruption of the interaction against wild type [3]: 45 percent

— PMC4326362, “Non-canonical regulation of phosphatidylinositol 3-kinase gamma isoform activity in retinal rod photoreceptor cells” (Cell Communication and Signaling : CCS, 2015)
